Measurements: patent publication CN117866092A (BEIJING KENUO XINCHENG TECH CO LTD, dated 2024)

Experiments:
[1] = target: T1, 细胞表面人CD73蛋白 (human CD73 on the cell surface) (human, UniProt P21589 27-549); assay: flow cytometry on BXPC-3 cells, FITC anti-human IgG
T1 construct: whole, on cells; Endogenous CD73 on human tumour cell lines; also called 细胞表面CD73; CD73 on BXPC-3, SKOV-3, A375, MDA-MB-231 and A431 cells
T1 sequence (looked up): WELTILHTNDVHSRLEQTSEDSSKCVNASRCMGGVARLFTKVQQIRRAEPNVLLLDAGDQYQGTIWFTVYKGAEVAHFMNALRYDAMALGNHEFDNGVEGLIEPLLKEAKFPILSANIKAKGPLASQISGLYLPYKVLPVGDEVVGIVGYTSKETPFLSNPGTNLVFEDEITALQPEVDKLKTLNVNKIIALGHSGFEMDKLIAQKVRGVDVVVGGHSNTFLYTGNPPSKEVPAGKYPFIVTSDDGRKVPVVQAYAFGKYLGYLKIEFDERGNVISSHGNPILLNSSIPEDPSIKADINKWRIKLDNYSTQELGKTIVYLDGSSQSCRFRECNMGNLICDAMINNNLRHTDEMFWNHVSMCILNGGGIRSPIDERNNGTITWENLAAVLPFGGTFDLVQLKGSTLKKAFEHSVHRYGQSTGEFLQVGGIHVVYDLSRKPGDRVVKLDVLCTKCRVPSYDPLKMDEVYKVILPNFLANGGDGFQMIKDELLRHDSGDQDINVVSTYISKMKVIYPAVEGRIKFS

[2] = target: T2, 人CD73-his重组蛋白(序列号:NM_002526.3，27-547aa) (human, UniProt P21589 27-547); assay: BLI (Octet QKe), antibody captured on AHC sensor, 60 nM CD73-his as analyte, 1:1 fit
T2 construct: range 27-547; Transiently expressed in eukaryotic cells; also called rhCD73-his; 重组人CD73-his; not shown: his tag
T2 sequence (looked up): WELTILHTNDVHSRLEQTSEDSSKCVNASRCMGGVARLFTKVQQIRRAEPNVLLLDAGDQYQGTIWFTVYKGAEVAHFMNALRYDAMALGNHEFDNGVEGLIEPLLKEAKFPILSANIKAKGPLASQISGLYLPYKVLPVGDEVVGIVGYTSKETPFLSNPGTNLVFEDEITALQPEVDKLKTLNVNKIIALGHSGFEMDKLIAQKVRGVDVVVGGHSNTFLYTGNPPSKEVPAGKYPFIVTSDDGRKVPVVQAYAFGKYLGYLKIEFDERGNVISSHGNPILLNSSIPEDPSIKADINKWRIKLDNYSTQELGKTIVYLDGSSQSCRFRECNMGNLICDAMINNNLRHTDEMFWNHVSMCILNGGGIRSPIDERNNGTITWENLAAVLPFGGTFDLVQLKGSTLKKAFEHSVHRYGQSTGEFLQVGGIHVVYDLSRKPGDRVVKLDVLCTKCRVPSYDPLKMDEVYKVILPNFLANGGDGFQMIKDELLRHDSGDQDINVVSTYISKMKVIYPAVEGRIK

EC50 [1]: 0.242 nM | Kd [2]: 0.635 nM | koff [2]: 0.000105 s⁻¹ | kon [2]: 165000 M⁻¹ s⁻¹
B1: MEDI9447 (antibody, V domains shown)
VH: EVQLLESGGGLVQPGGSLRLSCAASGFTFSSYAYSWVRQAPGKGLEWVSAISGSGGRTYYADSVKGRFTISRDNSKNTLYLQMNSLRAEDTAVYYCARLGYGRVDEWGRGTLVTVSS
VL: QSVLTQPPSASGTPGQRVTISCSGSLSNIGRNPVNWYQQLPGTAPKLLIYLDNLRLSGVPDRFSGSKSGTSASLAISGLQSEDEADYYCATWDDSHPGWTFGGGTKLTVLG
